Laboratory results from paper doi:10.1101/2023.08.25.554800, “CryoEM architecture of a native stretch-sensitive membrane microdomain” (bioRxiv, 2023).

Biological target: the molecule itself
Test: cryo-EM structure; 15-20uM recombinant Pil1 with ~2mg/mL LUVs of three lipid mixtures (-PI(4,5)P2/+sterol, +PI(4,5)P2/-sterol, +PI(4,5)P2/+sterol), 30°C for 1hr, 20 mM HEPES pH 7.4, 150 mM KoAc, 2 mM MgAc; helical reconstruction

B1: Recombinant Pil1 (natural protein, S. cerevisiae, UniProt P53252 1-339, looked up)
chain: MHRTYSLRNSRAPTASQLQNPPPPPSTTKGRFFGKGGLAYSFRRSAAGAFGPELSRKLSQLVKIEKNVLRSMELTANERRDAAKQLSIWGLENDDDVSDITDKLGVLIYEVSELDDQFIDRYDQYRLTLKSIRDIEGSVQPSRDRKDKITDKIAYLKYKDPQSPKIEVLEQELVRAEAESLVAEAQLSNITRSKLRAAFNYQFDSIIEHSEKIALIAGYGKALLELLDDSPVTPGETRPAYDGYEASKQIIIDAESALNEWTLDSAQVKPTLSFKQDYEDFEPEEGEEEEEEDGQGRWSEDEQEDGQIEEPEQEEEGAVEEHEQVGHQQSESLPQQTTA
notes: Pil1 of S. cerevisiae, PIL1 cloned into pCoofy6; the printed primers run from the ATG to the stop codon; The N-terminal position of Sumo3 is read from the primer LP1-Sumo3-Pil1-fwd; also called reconstituted Pil1; source: E. coli BL21(DE3)pLysS, purified (HisTrap, HiTrap Q, Sumo3 cleaved with SenP2, Superdex 200); not shown: Sumo3, N-terminal, cleaved
Q: Does B1 bind?
A: binds
